From IntAct's records for PubMed 31515488

B1: Notch homolog 2 N-terminal-like protein A (Homo sapiens), Q7Z3S9 (parent)
chain: MCVTYHNGTGYCKCPEGFLGEYCQHRDPCEKNRCQNGGTCVAQAMLGKATCRCASGFTGEDCQYSTSHPCFVSRPCLNGGTCHMLSRDTYECTCQVGFTGKECQWTDACLSHPCANGSTCTTVANQFSCKCLTGFTGQKCETDVNECDIPGHCQHGGTCLNLPGSYQCQCLQGFTGQYCDSLYVPCAPSPCVNGGTCRQTGDFTFECNCLPETVRRGTELWERDREVWNGKEHDEN
partner: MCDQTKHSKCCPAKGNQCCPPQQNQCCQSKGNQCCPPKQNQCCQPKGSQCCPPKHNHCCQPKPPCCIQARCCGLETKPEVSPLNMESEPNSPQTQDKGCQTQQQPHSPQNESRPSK
B2: Probable splicing factor YJU2B (Homo sapiens), P13994 (parent)
chain: MGERKGVNKYYPPDFNPEKHGSLNRYHNSHPLRERARKLSQGILIIRFEMPYNIWCDGCKNHIGMGVRYNAEKKKVGNYYTTPIYRFRMKCHLCVNYIEMQTDPANCDYVIVSGAQRKEERWDMADNEQVLTTEHEKKQKLETDAMFRLEHGEADRSTLKKALPTLSHIQEAQSAWKDDFALNSMLRRRFREKKKAIQEEEERDQALQAKASLTIPLVPETEDDRKLAALLKFHTLDSYEDKQKLKRTEIISRSWFPSAPGSASSSKVSGVLKKLAQSRRTALATSPITVGDLGIVRRRSRDVPESPQHAADTPKSGEPRVPEEAAQDRPMSPGDCPPETTETPKCSSPRGQEGSRQDKPLSPAGSSQEAADTPDTRHPCSLGSSLVADYSDSESE
partner: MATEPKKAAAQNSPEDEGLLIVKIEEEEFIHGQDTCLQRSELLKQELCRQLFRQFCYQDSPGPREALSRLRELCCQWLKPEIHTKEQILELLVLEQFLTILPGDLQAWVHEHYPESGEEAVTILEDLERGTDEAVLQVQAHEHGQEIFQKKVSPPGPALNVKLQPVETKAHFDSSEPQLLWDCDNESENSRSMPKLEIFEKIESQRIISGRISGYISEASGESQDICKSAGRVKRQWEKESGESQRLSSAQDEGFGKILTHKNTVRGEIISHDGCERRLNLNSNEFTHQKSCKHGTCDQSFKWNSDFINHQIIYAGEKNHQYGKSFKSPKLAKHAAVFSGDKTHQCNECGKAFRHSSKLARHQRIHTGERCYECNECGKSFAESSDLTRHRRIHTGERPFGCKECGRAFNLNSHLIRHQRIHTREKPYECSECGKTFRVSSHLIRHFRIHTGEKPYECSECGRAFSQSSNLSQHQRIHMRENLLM
B3: Double-strand-break repair protein rad21 homolog (Homo sapiens), O60216 (parent)
chain: MFYAHFVLSKRGPLAKIWLAAHWDKKLTKAHVFECNLESSVESIISPKVKMALRTSGHLLLGVVRIYHRKAKYLLADCNEAFIKIKMAFRPGVVDLPEENREAAYNAITLPEEFHDFDQPLPDLDDIDVAQQFSLNQSRVEEITMREEVGNISILQENDFGDFGMDDREIMREGSAFEDDDMLVSTTTSNLLLESEQSTSNLNEKINHLEYEDQYKDDNFGEGNDGGILDDKLISNNDGGIFDDPPALSEAGVMLPEQPAHDDMDEDDNVSMGGPDSPDSVDPVEPMPTMTDQTTLVPNEEEAFALEPIDITVKETKAKRKRKLIVDSVKELDSKTIRAQLSDYSDIVTTLDLAPPTKKLMMWKETGGVEKLFSLPAQPLWNNRLLKLFTRCLTPLVPEDLRKRRKGGEADNLDEFLKEFENPEVPREDQQQQHQQRDVIDEPIIEEPSRLQESVMEASRTNIDESAMPPPPPQGVKRKAGQIDPEPVMPPQQVEQMEIPPVELPPEEPPNICQLIPELELLPEKEKEKEKEKEDDEEEEDEDASGGDQDQEERRWNKRTQQMLHGLQRALAKTGAESISLLELCRNTNRKQAAAKFYSFLVLKKQQAIELTQEEPYSDIIATPGPRFHII
B4: E3 ubiquitin-protein ligase TRIM69 (Homo sapiens), Q86WT6 (parent)
chain: MEVSTNPSSNIDPGDYVEMNDSITHLPSKVVIQDITMELHCPLCNDWFRDPLMLSCGHNFCEACIQDFWRLQAKETFCPECKMLCQYNNCTFNPVLDKLVEKIKKLPLLKGHPQCPEHGENLKLFSKPDGKLICFQCKDARLSVGQSKEFLQISDAVHFFTEELAIQQGQLETTLKELQTLRNMQKEAIAAHKENKLHLQQHVSMEFLKLHQFLHSKEKDILTELREEGKALNEEMELNLSQLQEQCLLAKDMLVSIQAKTEQQNSFDFLKDITTLLHSLEQGMKVLATRELISRKLNLGQYKGPIQYMVWREMQDTLCPGLSPLTLDPKTAHPNLVLSKSQTSVWHGDIKKIMPDDPERFDSSVAVLGSRGFTSGKWYWEVEVAKKTKWTVGVVRESIIRKGSCPLTPEQGFWLLRLRNQTDLKALDLPSFSLTLTNNLDKVGIYLDYEGGQLSFYNAKTMTHIYTFSNTFMEKLYPYFCPCLNDGGENKEPLHILHPQ
B5: Leucine-rich repeat and calponin homology domain-containing protein 1 (Homo sapiens), Q9Y2L9 (parent)
chain: MATPGSEPQPFVPALSVATLHPLHHPHHHHHHHQHHGGTGAPGGAGGGGGGSGGFNLPLNRGLERALEEAANSGGLNLSARKLKEFPRTAAPGHDLSDTVQADLSKNRLVEVPMELCHFVSLEILNLYHNCIRVIPEAIVNLQMLTYLNLSRNQLSALPACLCGLPLKVLIASNNKLGSLPEEIGQLKQLMELDVSCNEITALPQQIGQLKSLRELNVRRNYLKVLPQELVDLSLVKFDFSCNKVLVIPICFREMKQLQVLLLENNPLQSPPAQICTKGKVHIFKYLSIQACQIKTADSLYLHTMERPHLHQHVEDGKKDSDSGVGSDNGDKRLSATEPSDEDTVSLNVPMSNIMEEEQIIKEDSCHRLSPVKGEFHQEFQPEPSLLGDSTNSGEERDQFTDRADGLHSEFMNYKARAEDCEELLRIEEDVHWQTEGIISSSKDQDMDIAMIEQLREAVDLLQDPNGLSTDITERSVLNLYPMGSAEALELQDSALNGQIQLETSPVCEVQSDLTLQSNGSQYSPNEIRENSPAVSPTTNSTAPFGLKPRSVFLRPQRNLESIDPQFTIRRKMEQMREEKELVEQLRESIEMRLKVSLHEDLGAALMDGVVLCHLVNHIRPRSVASIHVPSPAVPKLSMAKCRRNVENFLEACRKLGVPEADLCSPCDILQLDFRHIRKTVDTLLALGEKAPPPTSALRSRDLIGFCLVHILFIVLVYITYHWNALSA
B6: Tuftelin-interacting protein 11 (Homo sapiens), Q9UBB9 (parent)
chain: MSLSHLYRDGEGRIDDDDDERENFEITDWDLQNEFNPNRQRHWQTKEEATYGVWAERDSDDERPSFGGKRARDYSAPVNFISAGLKKGAAEEAELEDSDDEEKPVKQDDFPKDFGPRKLKTGGNFKPSQKGFAGGTKSFMDFGSWERHTKGIGQKLLQKMGYVPGRGLGKNAQGIINPIEAKQRKGKGAVGAYGSERTTQSMQDFPVVDSEEEAEEEFQKELSQWRKDPSGSKKKPKYSYKTVEELKAKGRISKKLTAPQKELSQVKVIDMTGREQKVYYSYSQISHKHNVPDDGLPLQSQQLPQSGKEAKAPGFALPELEHNLQLLIDLTEQEIIQNDRQLQYERDMVVNLFHELEKMTEVLDHEERVISNLSKVLEMVEECERRMQPDCSNPLTLDECARIFETLQDKYYEEYRMSDRVDLAVAIVYPLMKEYFKEWDPLKDCTYGTEIISKWKSLLENDQLLSHGGQDLSADAFHRLIWEVWMPFVRNIVTQWQPRNCDPMVDFLDSWVHIIPVWILDNILDQLIFPKLQKEVENWNPLTDTVPIHSWIHPWLPLMQARLEPLYSPIRSKLSSALQKWHPSDSSAKLILQPWKDVFTPGSWEAFMVKNIVPKLGMCLGELVINPHQQHMDAFYWVIDWEGMISVSSLVGLLEKHFFPKWLQVLCSWLSNSPNYEEITKWYLGWKSMFSDQVLAHPSVKDKFNEALDIMNRAVSSNVGAYMQPGARENIAYLTHTERRKDFQYEAMQERREAENMAQRGIGVAASSVPMNFKDLIETKAEEHNIVFMPVIGKRHEGKQLYTFGRIVIYIDRGVVFVQGEKTWVPTSLQSLIDMAK
partner: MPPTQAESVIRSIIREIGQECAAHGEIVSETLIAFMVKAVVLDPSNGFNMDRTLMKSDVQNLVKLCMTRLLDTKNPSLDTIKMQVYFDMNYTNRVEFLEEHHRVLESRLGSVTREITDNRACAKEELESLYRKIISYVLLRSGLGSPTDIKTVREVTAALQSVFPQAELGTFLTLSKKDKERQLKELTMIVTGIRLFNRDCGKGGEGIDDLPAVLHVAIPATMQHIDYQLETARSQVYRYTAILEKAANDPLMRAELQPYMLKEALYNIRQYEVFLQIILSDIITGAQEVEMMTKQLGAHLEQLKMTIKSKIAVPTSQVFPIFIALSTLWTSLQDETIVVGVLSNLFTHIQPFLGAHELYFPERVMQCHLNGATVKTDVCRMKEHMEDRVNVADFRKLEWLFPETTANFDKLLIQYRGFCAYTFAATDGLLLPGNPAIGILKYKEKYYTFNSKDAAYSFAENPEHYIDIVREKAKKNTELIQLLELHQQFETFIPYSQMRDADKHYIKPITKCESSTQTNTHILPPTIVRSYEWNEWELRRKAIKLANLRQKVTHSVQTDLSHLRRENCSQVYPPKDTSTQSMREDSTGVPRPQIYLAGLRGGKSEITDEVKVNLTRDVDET
B7: Syntenin-2 (Homo sapiens), Q9H190 (parent)
chain: MSSLYPSLEDLKVDQAIQAQVRASPKMPALPVQATAISPPPVLYPNLAELENYMGLSLSSQEVQESLLQIPEGDSTAVSGPGPGQMVAPVTGYSLGVRRAEIKPGVREIHLCKDERGKTGLRLRKVDQGLFVQLVQANTPASLVGLRFGDQLLQIDGRDCAGWSSHKAHQVVKKASGDKIVVVVRDRPFQRTVTMHKDSMGHVGFVIKKGKIVSLVKGSSAARNGLLTNHYVCEVDGQNVIGLKDKKIMEILATAGNVVTLTIIPSVIYEHMVKKLPPVLLHHTMDHSIPDA
partner: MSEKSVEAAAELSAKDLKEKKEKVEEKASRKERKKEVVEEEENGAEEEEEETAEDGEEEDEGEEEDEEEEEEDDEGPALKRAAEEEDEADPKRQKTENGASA
B8: Paraneoplastic antigen-like protein 5 (Homo sapiens), Q96PV4 (parent)
chain: MALTLLEDWCKGMDMDPRKALLIVGIPMECSEVEIQDTVKAGLQPLCAYRVLGRMFRREDNAKAVFIELADTVNYTTLPSHIPGKGGSWEVVVKPRNPDDEFLSRLNYFLKDEGRSMTDVARALGCCSLPAESLDAEVMPQVRSPPLEPPKESMWYRKLKVFSGTASPSPGEETFEDWLEQVTEIMPIWQVSEVEKRRRLLESLRGPALSIMRVLQANNDSITVEQCLDALKQIFGDKEDFRASQFRFLQTSPKIGEKVSTFLLRLEPLLQKAVHKSPLSVRSTDMIRLKHLLARVAMTPALRGKLELLDQRGCPPNFLELMKLIRDEEEWENTEAVMKNKEKPSGRGRGASGRQARAEASVSAPQATVQARSFSDSSPQTIQGGLPPLVKRRRLLGSESTRGEDHGQATYPKAENQTPGREGPQAAGEELGNEAGAGAMSHPKPWET

Variants of: B1
Conditions: with mcsp_human SMCP

Row | effect of a mutation on the interaction | Variant
1 | with no effect | R74Q

Variants of: B2
Conditions: with zn165_human ZNF165, P49910

Row | effect of a mutation on the interaction | Variant
2 | with no effect | S22C

Variants of: B3
Conditions: with fhl3_human FHL3, Q13643
Sequence of fhl3_human FHL3, Q13643 (Q13643 whole entry): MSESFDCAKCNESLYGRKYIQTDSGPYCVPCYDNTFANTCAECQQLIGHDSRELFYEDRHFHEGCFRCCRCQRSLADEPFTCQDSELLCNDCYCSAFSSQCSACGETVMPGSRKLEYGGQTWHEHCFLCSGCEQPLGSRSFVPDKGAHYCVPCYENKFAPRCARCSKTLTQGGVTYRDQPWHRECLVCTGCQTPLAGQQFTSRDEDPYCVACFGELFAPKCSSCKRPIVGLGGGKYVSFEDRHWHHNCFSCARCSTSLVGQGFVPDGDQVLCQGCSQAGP

Row | Variant | effect of a mutation on the interaction
3 | D95H | with no effect
4 | I45V | with no effect

More lines, now with the values ahead:

Row | effect of a mutation on the interaction | Variant
5 | with no effect | P443L
6 | with no effect | D414E
7 | with no effect | P426S
8 | with no effect | M362L

Variants of: B4
Conditions: with at5g1_human ATP5MC1, P05496
Sequence of at5g1_human ATP5MC1, P05496 (P05496 whole entry): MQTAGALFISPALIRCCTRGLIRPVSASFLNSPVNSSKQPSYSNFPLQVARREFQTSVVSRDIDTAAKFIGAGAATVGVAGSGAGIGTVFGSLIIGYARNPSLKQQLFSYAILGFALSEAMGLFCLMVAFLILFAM

Row | effect of a mutation on the interaction | Variant
9 | disrupting interaction strength | N239K
10 | with no effect | I399F
11 | with no effect | Q301H
12 | with no effect | A190V

Variants of: B4
Conditions: with maga4_human MAGEA4, P43358
Sequence of maga4_human MAGEA4, P43358 (P43358 whole entry): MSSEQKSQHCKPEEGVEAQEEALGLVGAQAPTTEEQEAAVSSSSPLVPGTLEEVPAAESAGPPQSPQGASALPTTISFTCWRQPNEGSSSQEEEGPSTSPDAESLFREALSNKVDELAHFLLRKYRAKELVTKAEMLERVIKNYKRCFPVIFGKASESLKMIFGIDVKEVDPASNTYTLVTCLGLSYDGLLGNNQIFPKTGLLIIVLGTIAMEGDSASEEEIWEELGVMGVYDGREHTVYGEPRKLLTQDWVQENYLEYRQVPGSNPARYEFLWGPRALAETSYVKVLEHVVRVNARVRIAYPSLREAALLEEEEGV

Row | effect of a mutation on the interaction | Variant
13 | with no effect | N239K
14 | with no effect | I399F
15 | with no effect | Q301H
16 | with no effect | A190V

Variants of: B5
Conditions: with dock8_human DOCK8, Q8NF50

Row | effect of a mutation on the interaction | Variant
17 | with no effect | A486S

Variants of: B6
Conditions: with cf206_human CFAP206, Q8IYR0

Row | effect of a mutation on the interaction | Variant
18 | with no effect | R8Q
19 | with no effect | S688L

Variants of: B7
Conditions: with ptms_human PTMS

Row | effect of a mutation on the interaction | Variant
20 | disrupting interaction strength | R223C

Variants of: B8
Conditions: with arpc4_human ARPC4, P59998

Row | effect of a mutation on the interaction | Variant
21 | with no effect | T261A

Variants of: B8
Conditions: with zfy26_human ZFYVE26, Q68DK2
Sequence of zfy26_human ZFYVE26, Q68DK2 (Q68DK2 whole entry): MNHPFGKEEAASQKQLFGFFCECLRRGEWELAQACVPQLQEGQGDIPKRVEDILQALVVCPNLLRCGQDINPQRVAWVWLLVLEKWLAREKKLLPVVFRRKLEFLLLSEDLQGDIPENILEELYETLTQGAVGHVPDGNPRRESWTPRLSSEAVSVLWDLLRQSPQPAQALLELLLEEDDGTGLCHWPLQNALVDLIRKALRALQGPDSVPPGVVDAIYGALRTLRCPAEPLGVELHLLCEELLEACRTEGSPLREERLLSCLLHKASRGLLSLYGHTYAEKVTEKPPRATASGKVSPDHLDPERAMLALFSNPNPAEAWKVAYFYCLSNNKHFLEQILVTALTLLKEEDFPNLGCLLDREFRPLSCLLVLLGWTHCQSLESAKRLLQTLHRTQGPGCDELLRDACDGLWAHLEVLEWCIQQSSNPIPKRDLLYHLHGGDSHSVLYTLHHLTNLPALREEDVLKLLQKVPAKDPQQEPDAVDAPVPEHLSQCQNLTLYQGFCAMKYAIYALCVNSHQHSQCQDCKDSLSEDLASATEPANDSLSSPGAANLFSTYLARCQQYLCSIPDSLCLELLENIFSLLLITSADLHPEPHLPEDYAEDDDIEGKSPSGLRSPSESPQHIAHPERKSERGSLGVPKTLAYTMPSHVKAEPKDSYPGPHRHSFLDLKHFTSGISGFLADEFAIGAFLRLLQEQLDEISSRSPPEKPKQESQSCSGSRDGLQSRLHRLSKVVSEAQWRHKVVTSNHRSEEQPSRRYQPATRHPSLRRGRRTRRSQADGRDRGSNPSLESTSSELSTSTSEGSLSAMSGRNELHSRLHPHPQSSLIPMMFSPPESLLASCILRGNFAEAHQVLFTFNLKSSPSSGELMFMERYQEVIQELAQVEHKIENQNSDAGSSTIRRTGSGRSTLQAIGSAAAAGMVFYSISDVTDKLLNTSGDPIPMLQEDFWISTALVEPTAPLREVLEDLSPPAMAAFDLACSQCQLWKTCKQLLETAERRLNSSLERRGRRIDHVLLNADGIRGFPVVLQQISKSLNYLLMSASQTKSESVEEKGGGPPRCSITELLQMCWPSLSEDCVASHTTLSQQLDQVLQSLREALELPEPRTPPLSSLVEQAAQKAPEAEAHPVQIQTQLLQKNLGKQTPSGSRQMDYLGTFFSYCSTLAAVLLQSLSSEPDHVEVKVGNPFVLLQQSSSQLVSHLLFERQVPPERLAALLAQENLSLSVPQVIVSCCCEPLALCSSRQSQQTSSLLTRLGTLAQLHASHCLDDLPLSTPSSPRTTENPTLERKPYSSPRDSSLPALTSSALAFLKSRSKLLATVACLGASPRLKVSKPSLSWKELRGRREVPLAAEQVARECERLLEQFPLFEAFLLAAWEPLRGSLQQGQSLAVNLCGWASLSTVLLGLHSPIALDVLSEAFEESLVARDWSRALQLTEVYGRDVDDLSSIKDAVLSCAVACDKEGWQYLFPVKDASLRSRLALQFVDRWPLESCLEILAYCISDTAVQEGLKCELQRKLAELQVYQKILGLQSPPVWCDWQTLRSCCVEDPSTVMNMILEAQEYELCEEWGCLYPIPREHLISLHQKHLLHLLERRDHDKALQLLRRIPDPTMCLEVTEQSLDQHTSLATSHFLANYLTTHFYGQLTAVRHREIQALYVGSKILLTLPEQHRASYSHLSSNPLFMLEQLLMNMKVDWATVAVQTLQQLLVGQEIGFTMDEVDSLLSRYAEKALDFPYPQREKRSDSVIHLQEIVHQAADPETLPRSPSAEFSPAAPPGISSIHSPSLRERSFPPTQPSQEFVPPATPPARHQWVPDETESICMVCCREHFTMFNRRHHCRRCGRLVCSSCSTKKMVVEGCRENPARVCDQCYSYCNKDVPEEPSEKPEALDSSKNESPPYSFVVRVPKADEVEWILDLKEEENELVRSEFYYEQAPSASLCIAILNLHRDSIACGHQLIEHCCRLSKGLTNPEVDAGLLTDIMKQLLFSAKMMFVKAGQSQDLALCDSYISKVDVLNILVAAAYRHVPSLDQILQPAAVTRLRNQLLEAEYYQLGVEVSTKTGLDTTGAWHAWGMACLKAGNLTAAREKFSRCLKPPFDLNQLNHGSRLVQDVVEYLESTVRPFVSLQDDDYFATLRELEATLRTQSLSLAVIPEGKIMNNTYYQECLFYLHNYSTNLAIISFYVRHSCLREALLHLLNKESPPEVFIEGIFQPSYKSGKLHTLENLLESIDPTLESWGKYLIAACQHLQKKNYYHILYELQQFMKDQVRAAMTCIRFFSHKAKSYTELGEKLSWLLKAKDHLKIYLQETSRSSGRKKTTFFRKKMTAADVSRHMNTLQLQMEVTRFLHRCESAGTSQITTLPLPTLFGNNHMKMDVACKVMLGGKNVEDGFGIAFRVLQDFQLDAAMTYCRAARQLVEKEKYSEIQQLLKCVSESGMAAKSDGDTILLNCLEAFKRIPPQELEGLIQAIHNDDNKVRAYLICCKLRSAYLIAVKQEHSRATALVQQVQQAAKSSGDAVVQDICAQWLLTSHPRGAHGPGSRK

Row | effect of a mutation on the interaction | Variant
22 | with no effect | T261A

Variants of: B8
Conditions: with ccnc_human CCNC

Row | effect of a mutation on the interaction | Variant
23 | with no effect | T261A

Variants of: B8
Conditions: with aapk1_human PRKAA1, Q13131
Sequence of aapk1_human PRKAA1, Q13131 (Q13131 whole entry, looked up): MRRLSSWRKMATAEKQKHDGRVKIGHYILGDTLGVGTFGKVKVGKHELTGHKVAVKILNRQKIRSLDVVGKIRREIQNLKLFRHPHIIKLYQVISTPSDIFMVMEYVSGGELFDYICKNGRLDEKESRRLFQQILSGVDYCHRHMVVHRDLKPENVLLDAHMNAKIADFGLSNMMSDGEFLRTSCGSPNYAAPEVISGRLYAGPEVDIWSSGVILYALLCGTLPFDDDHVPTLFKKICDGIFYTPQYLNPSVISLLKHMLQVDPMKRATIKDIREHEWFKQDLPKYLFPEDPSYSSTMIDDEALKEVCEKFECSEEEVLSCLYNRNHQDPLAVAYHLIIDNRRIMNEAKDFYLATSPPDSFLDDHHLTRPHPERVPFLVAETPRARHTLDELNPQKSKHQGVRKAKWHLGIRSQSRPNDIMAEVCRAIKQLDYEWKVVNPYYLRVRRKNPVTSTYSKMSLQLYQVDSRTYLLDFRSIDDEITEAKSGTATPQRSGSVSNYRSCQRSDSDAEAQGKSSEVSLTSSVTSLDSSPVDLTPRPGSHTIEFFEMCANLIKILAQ

Row | effect of a mutation on the interaction | Variant
24 | with no effect | T261A
